The values that follow come from patent publication US7317091.

Sequence of human FcγRIIb extracellular region, GST-tagged (human) (P31994 43-217): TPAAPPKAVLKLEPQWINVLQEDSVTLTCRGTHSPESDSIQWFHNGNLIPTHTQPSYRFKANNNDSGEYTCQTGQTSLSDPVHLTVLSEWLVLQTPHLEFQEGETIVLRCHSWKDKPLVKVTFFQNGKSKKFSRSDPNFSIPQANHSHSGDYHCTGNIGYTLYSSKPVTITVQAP

The first test addresses FcγRIIIa on human PBMC effector cells (human) (UniProt P08637). The experiment in a line: cell-based or functional assay.
Take S239D/I332E alemtuzumab (antibody): the ADCC EC50, DoHH-2 targets, V158/F158 PBMCs is 3 ng/mL; the ADCC Fold Improvement Over WT was found to be 3.3 fold; the ADCC log(EC50), DoHH-2 targets, V158/F158 PBMCs is 0.49 log(ng/ml).
Regarding V264I/I332E alemtuzumab (antibody), the ADCC EC50, DoHH-2 targets, V158/F158 PBMCs turned out to be 4 ng/mL and the ADCC log(EC50), DoHH-2 targets, V158/F158 PBMCs is 0.6 log(ng/ml).

A further test addresses human FcγRIIb extracellular region, GST-tagged (human) (UniProt P31994). The experiment in a line: AlphaScreen competition.
S239D/I332E trastuzumab (antibody): the FcγRIIb Fold was determined as 19.7 fold vs WT.
Take “S239D/V264I/I332E trastuzumab (antibody)”: the FcγRIIb Fold was found to be 14.4 fold vs WT.
On to “S239N/S298A/I332E trastuzumab (antibody)”, for which the FcγRIIb Fold was determined as 5.15 fold vs WT.

The target of a further test is human V158 FcγRIIIa extracellular region fused with glutathione S-transferase (GST) (human) (UniProt P08637). The experiment in a line: AlphaScreen competition.
Sequence of human V158 FcγRIIIa extracellular region fused with glutathione S-transferase (GST) (human) (P08637 17-208 F176V): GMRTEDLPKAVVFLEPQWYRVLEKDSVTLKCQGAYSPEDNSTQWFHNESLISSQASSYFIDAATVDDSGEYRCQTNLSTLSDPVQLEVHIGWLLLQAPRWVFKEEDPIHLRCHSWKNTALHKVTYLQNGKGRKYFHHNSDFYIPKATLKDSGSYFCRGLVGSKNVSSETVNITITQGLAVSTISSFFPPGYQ
In turn, E233D trastuzumab (antibody) returned a FcγRIIIa Fold of 0.85 fold vs WT.
On to E272Y trastuzumab (antibody), for which the FcγRIIIa Fold is 8.7 fold vs WT.
On the same count and under the same terms, with E283R trastuzumab (antibody) the figure was 0.67 fold vs WT.
In turn, E318R trastuzumab (antibody) showed a FcγRIIIa Fold of 1.06 fold vs WT.
Substance E333H trastuzumab (antibody) showed a FcγRIIIa Fold of 0.75 fold vs WT.
Still for that read-out and setting: the value for E333T trastuzumab (antibody) was 0.78 fold vs WT; that for F275W trastuzumab (antibody) was 1.11 fold vs WT.
For the substance K274E trastuzumab (antibody), the FcγRIIIa Fold amounted to 6.11 fold vs WT.
For the substance K274L trastuzumab (antibody), the FcγRIIIa Fold is 1.09 fold vs WT.
In turn, K274R trastuzumab (antibody) displayed a FcγRIIIa Fold of 1.41 fold vs WT.
For the substance K274T trastuzumab (antibody), the FcγRIIIa Fold was determined as 1.41 fold vs WT.
On the same count and under the same terms, the value for K274Y trastuzumab (antibody) was 1.06 fold vs WT.
As to K326I trastuzumab (antibody), the FcγRIIIa Fold worked out at 1.43 fold vs WT.
With K326T trastuzumab (antibody), the FcγRIIIa Fold was found to be 1.88 fold vs WT.
For the substance N276E trastuzumab (antibody), the FcγRIIIa Fold amounted to 0.87 fold vs WT.
Turning to N276R trastuzumab (antibody), the FcγRIIIa Fold is 0.66 fold vs WT.
Substance N276S trastuzumab (antibody) displayed a FcγRIIIa Fold of 0.41 fold vs WT.
Take N276Y trastuzumab (antibody): the FcγRIIIa Fold was 0.56 fold vs WT.
P230A trastuzumab (antibody) displayed a FcγRIIIa Fold of 1.09 fold vs WT.
In turn, P230A/E233D trastuzumab (antibody) showed a FcγRIIIa Fold of 0.92 fold vs WT.
Turning to “P230A/E233D/I332E trastuzumab (antibody)”, the FcγRIIIa Fold is 1.87 fold vs WT.
Still for that read-out and setting: with “S239D/A330Y/I332E/K326E trastuzumab (antibody)” the figure was 64.1 fold vs WT; with “S239D/A330Y/I332E/L234I trastuzumab (antibody)”, 22.4 fold vs WT; with “S239D/A330Y/I332E/L235D trastuzumab (antibody)”, 7.04 fold vs WT.
Turning to “S239D/A330Y/I332E/V240I trastuzumab (antibody)”, the FcγRIIIa Fold worked out at 28 fold vs WT.
As for “S239D/A330Y/I332E/V264T trastuzumab (antibody)”, the FcγRIIIa Fold amounted to 17.7 fold vs WT.
In turn, S239D/I332E alemtuzumab (antibody) displayed a FcγRIIIa Fold of 56.1 fold vs WT.
Consider “S239D/I332E/A330I trastuzumab (antibody)”, for which the FcγRIIIa Fold is 59.1 fold vs WT.
Same read-out and setting: with “S239D/V264I/I332E trastuzumab (antibody)” the figure was 36.6 fold vs WT; with “S239N/A330L/I332E trastuzumab (antibody)”, 12.9 fold vs WT; with “S239N/A330Y/I332E trastuzumab (antibody)”, 14.2 fold vs WT.
“S239N/S298A/I332E trastuzumab (antibody)”: the FcγRIIIa Fold was found to be 32.1 fold vs WT.
Take S324R trastuzumab (antibody): the FcγRIIIa Fold worked out at 0.71 fold vs WT.
For S324V trastuzumab (antibody), the FcγRIIIa Fold turned out to be 1.17 fold vs WT.
In the case of S324Y trastuzumab (antibody), the FcγRIIIa Fold is 0.98 fold vs WT.
The same measure, in the same setting: the value for T335D trastuzumab (antibody) was 2.79 fold vs WT.
In the case of T335R trastuzumab (antibody), the FcγRIIIa Fold amounted to 2.58 fold vs WT.
In turn, T335Y trastuzumab (antibody) registered a FcγRIIIa Fold of 1.56 fold vs WT.
With V240I/V266I trastuzumab (antibody), the FcγRIIIa Fold is 1.72 fold vs WT.
On to “V264I/S298A/I332E trastuzumab (antibody)”, for which the FcγRIIIa Fold was found to be 16.5 fold vs WT.
In turn, V273I trastuzumab (antibody) showed a FcγRIIIa Fold of 0.79 fold vs WT.
Still for that read-out and setting: with V302I trastuzumab (antibody) the figure was 1.01 fold vs WT; with V323I trastuzumab (antibody), 0.83 fold vs WT.
The same measure, in the same setting: the value for Y278E trastuzumab (antibody) was 0.9 fold vs WT; that for Y278T trastuzumab (antibody) was 1.87 fold vs WT.
Y278W trastuzumab (antibody) came in with a FcγRIIIa Fold of 0.41 fold vs WT.
